Source: patent publication US10487337B2, “Methods for monocot plant improvement” (Agresearch Limited, priority 2014, dated 2019)

Columns and labels:
[1] = system: Arabidopsis Δppd mutant; experiment: Complementation of the Arabidopsis Δppd mutant leaf phenotype; format: in vivo; conditions: CaMV35s promoter, Arabidopsis thaliana ecotype Landsberg erecta, FIG. 13
Source text: The functionality of any PEAPOD sequence can be confirmed by complementation of the Arabidopsis Δppd mutant leaf phenotype. Complementation of the Arabidopsis Δppd mutant leaf phenotype was first used to identify the Arabidopsis PPD gene (White 2006). This was seen by a restoration of the wild type flattened leaf phenotype and normal rosette shape as opposed to the domed leaf and the twisting of the rosette to a “propeller” phenotype.
Arabidopsis thaliana (L.) Heynh ecotype Ler can be used as wild-type (WT). The Δppd loss of function deletion mutant (with PPD1 and PPD2 deleted) is as previously described in White 2006, PNAS 103, 13238-13243.
Plants are grown in a temperature-controlled glasshouse at a continuous 21° C. or in a controlled environment cabinet at 23° C. in 16-h light_8-h dark cycles.
Constructs above can be transformed into Arabidopsis by the floral dip infiltration method (Clough and Bent, 1998, Plant J 16, 735-43). The Δppd line is transformed to express the PPD polypeptides by standard techniques. Transgenic plants are confirmed by standard PCR analysis techniques with a combination of transgene-specific and T-DNA primers.
Complementation of the Δppd line to produce a wild-type leaf and rosette phenotype in T1 seedlings (the off-spring of the infiltrated plant) confirms PEAPOD functionality of the introduced gene, which can be shown in photographs.

[2] = target: T1, NINJA (Arabidopsis thaliana, UniProt Q9SV55); experiment: BiFC interaction with NINJA in Nicotiana benthamiana leaves; format: cell-based; conditions: in plants (FIG. 8)
T1 construct: expressed in transfected cells; host or cells: Nicotiana benthamiana leaves (Agrobacterium infiltration)
T1 sequence (Q9SV55 with tags, fused parts or gaps): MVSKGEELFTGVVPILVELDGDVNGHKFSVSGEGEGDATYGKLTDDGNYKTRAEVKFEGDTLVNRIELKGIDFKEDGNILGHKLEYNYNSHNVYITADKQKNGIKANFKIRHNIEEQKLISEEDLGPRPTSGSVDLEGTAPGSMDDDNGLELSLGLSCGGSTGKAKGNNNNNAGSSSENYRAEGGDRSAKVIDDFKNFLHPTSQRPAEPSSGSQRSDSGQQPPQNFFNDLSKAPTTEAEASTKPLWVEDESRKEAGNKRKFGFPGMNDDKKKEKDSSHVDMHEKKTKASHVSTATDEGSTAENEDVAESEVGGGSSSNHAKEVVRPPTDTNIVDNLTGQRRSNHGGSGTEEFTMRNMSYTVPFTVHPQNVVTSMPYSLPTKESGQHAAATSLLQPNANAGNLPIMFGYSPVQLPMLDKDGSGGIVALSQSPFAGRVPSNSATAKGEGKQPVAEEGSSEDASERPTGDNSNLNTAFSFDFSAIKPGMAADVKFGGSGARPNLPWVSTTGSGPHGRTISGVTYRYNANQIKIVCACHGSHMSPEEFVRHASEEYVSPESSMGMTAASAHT
Source text: The binary BiFC-Gateway YFP vectors pDEST-VYNE(R)^GW (Venus aa 1-173) and pDEST-VYCE(R)^GW (Venus aa 156-239) with N-terminal fusions, were used to construct the following vectors; pDESTnYFP-BZR1, pDESTnYFP-NINJA, pDESTnYFP-PPD1, pDESTcYFP-BZR1, pDESTcYFP-PPD1, pDESTcYFP-PPD1Δppd, pDESTcYFP-PPD1Δtify and pDESTcYFP-PPD1Δjas*. For transient in planta expression of proteins interacting with PPD1 or BZR, NINJA and TPL were Gateway® sub-cloned into pRSh1, to construct pRSh1-NINJA and pRSh1-TPL. […] When expressed these constructs produced proteins listed in sequences 60, 62, 70 71 72 73 74 75 76 77 78 79: including TOPLESS (TPL), NINJA, Bimolecular Fluorescence (BiFC) nYFP, BiFC cYFP, BiFC nYFP-NINJA, BiFC nYFP-BZR1, BiFC cYFP-PPD1, BiFC cYFP-NINJA, BiFC cYFP-BZR1, BiFC cYFP-PPD1-ppd, BiFC cYFP-PPD1-tify, BiFC cYFP-PPD1-jas*.
Transient BiFC experiments were performed using combinations of pDESTnYFP and pDESTcYFP plasmids, with or without plasmids for the expression of NINJA (pRSh1-NINJA) or TPL (pRSh1-TPL) and Agrobacterium-infiltration of Nicotiana benthamiana leaves. […] Two hours prior to sampling for microscopic fluorescence observations leaves were infiltrated with a 1 μg/ml DAPI solution to stain nuclei. YFP fluorescence and DAPI staining was detected using an Olympus Fluoview FV10i confocal laser scanning microscope. […]

B1: PPD1: PEAPOD 1 protein of Arabidopsis thaliana, SEQ ID NO: 1 (protein, listed as Arabidopsis thaliana)
chain: MDVGVSPAKSILAKPLKLLTEEDISQLTREDCRKFLKDKGMRRPSWNKSQAIQQVLSLKALYEPGDDSGAGIFRKILVSQPVNPPRVTTTLIEPSNELEACGRVSYPEDNGACHRMDSPRSAEFSGGSGHFVSEKDGHKTTISPRSPAETSELVGQMTIFYSGKVNVYDGIPPEKARSIMHFAANPIDLPENGIFASSRMISKLISKEKMMELPQKGLEKANSSRDSGMEGQANRKVSLQRYREKRKDRKFSKAKKCPGVASSSLEMFLNCQPRMKAAYSQNLGCTGSPLHSQSPESQTKSPNLSVDLNSEGI
PEAPOD functionality by complementation of the Δppd deletion mutant [1]: functionally equivalent
interaction with NINJA [2]: interacted with NINJA in plants
